Test results: PMC4334965, “Molecular Bases of Catalysis and ADP-Ribose Preference of Human Mn^2+-Dependent ADP-Ribose/CDP-Alcohol Diphosphatase and Conversion by Mutagenesis to a Preferential Cyclic ADP-Ribose Phosphohydrolase” (PLoS ONE, 2015)
Where a chain is given by its changes, count along the chain named. In names and notes the source's numbering stands.

B1: human ADPRibase-Mn (Homo sapiens; H111A) (protein)
chain: MDDKPNPEALSDSSERLFSFGVIADVQFADLEDGFNFQGTRRRYYRHSLLHLQGAIEDWNNESSMPCCVLQLGDIIDGYNAQYNASKKSLELVMDMFKRLKVPVHHTWGNAEFYNFSREYLTHSKLNTKFLEDQIVHHPETMPSEDYYAYHFVPFPKFRFILLDAYDLSVLGVDQSSPKYEQCMKILREHNPNTELNSPQGLSEPQFVQFNGGFSQEQLNWLNEVLTFSDTNQEKVVIVSHLPIYPDASDNVCLAWNYRDALAVIWSHECVVCFFAGHTHDGGYSEDPFGVYHVNLEGVIETAPDSQAFGTVHVYPDKMMLKGRGRVPDRIMNYKKERAFHC
notes: full length, 342 aa; expressed as GST fusion (pGEX-6P-3), GST cut off with PreScission protease, 11-aa N-terminal extension …
B2: human ADPRibase-Mn (Homo sapiens; F210A) (protein)
chain: B1 chain with A111H, F210A
notes: as for B1
B3: human ADPRibase-Mn (Homo sapiens; C253A) (protein)
chain: B1 chain with A111H, C253A
notes: as for B1
B4: human ADPRibase-Mn (Homo sapiens; Q27H) (protein)
chain: B1 chain with Q27H, A111H
notes: as for B1
B5: human ADPRibase-Mn (Homo sapiens) (protein)
chain: B1 chain with A111H
notes: as for B1
B6: human ADPRibase-Mn (Homo sapiens; C253A/F37A/L196F) (protein)
chain: B1 chain with F37A, A111H, L196F, C253A
notes: as for B1

How the values were obtained:
Assay type in all cases: biochemical, Homo sapiens
Details in all cases: 5 mM MnCl2, pH 7.5, 37°C
[1] = substrate: C[N+](C)(C)CCOP(=O)(O)OP(=O)([O-])OC[C@H]1O[C@@H](n2ccc(N)nc2=O)[C@H](O)[C@@H]1O; assay: colorimetric Pi assay coupled to alkaline phosphatase, saturation kinetics
Excerpt: (§1) colorimetric Pi assay coupled to alkaline phosphatase, saturation kinetics on human ADPRibase-Mn

[2] = substrate: N=c1c2ncn3c2ncn1[C@@H]1O[C@H](COP(=O)(O)OP(=O)(O)OC[C@H]2O[C@@H]3[C@H](O)[C@@H]2O)[C@@H](O)[C@H]1O; assay: HPLC of N1-(5-phosphoribosyl)-AMP formed, saturation kinetics
Excerpt: HPLC of N1-(5-phosphoribosyl)-AMP formed, saturation kinetics on human ADPRibase-Mn

[3] = substrate: Nc1ncnc2c1ncn2[C@@H]1O[C@H](CO)[C@H]2OP(=O)(O)O[C@H]21; assay: colorimetric Pi assay coupled to alkaline phosphatase, saturation kinetics
Excerpt: as §1

Row | Protein | Km [1] | kcat [1] | kcat/Km [1] | Km [2] | kcat [2] | kcat/Km [2] | Km [3] | kcat [3] | kcat/Km [3]
1 | B1 | 7500 ± 700 µM | 2.2 ± 0.2 s⁻¹ | 300 ± 30 M⁻¹ s⁻¹ |  |  |  |  |  | 
2 | B2 | 11000 ± 2600 µM | 50 ± 12 s⁻¹ | 4000 ± 100 M⁻¹ s⁻¹ |  |  |  |  |  | 
3 | B3 |  |  |  | 200 ± 40 µM | 8.9 ± 0.8 s⁻¹ | 44000 ± 9000 M⁻¹ s⁻¹ |  |  | 
4 | B4 | 2700 ± 200 µM | 39 ± 12 s⁻¹ | 14000 ± 3000 M⁻¹ s⁻¹ |  |  |  |  |  | 
5 | B5 | 350 ± 60 µM | 50 ± 4 s⁻¹ | 150000 ± 30000 M⁻¹ s⁻¹ | 780 ± 200 µM | 3.2 ± 0.2 s⁻¹ | 4000 ± 1000 M⁻¹ s⁻¹ | 2400 ± 300 µM | 60 ± 13 s⁻¹ | 25000 ± 6000 M⁻¹ s⁻¹
6 | B6 |  |  |  | 460 ± 120 µM | 16 ± 3 s⁻¹ | 35500 ± 4300 M⁻¹ s⁻¹ |  |  | 
